Test [1] deals with VEGF. As to the kind of experiment: cell-based or functional assay.
Test [2] addresses T1, recombinant human VEGF165 (human, UniProt P15692-4 27-191, biotinylated (Sulfo-NHS-LC-Biotin) in the competition assays).
T1 construct: also called hVEGF165; rhVEGF165
As to the kind of experiment: SPR Biacore T100, VEGF165 chip, Two State Reaction fit. The procedure:
Samples are injected for 2 min and allowed to dissociate up to 20 min at a flow rate of […]. In between sample injections, the chip surface is regenerated with 100 mM HCl. HBS-EP+(Hepes buffer pH7.4+EDTA) is used as running buffer. Binding curves are fitted using a Two State Reaction model by Biacore T100 Evaluation Software v2.0.1.
^{(a)}Heterogeneous binding curve resulting in no 1:1 fit, curves are fitted using a Two State Reaction model by Biacore T100 Evaluation Software v2.0.1

In test [3] the target is VEGF. As to the kind of experiment: cell-based or functional assay. This is another data set of the same source.
The target of test [4] is VEGF. As to the kind of experiment: cell-based or functional assay. This is another data set of the same source.
Test [5] addresses T1, recombinant human VEGF165. As to the kind of experiment: Biacore, periplasmic extract, VEGF165 chip, two phase decay fit. On the set-up: unit not given here. The procedure: Dissociation rates of inhibitory VHHs are analyzed on Biacore (Biacore T100 instrument, GE Healthcare). HBS-EP+ buffer is used as running buffer and experiments are performed at 25° C. […] After immobilization, surfaces are deactivated with 10 min injection of 1 M ethanolamine pH8.5. A reference surface is activated and deactivated with respectively EDC/NHS and ethanolamine. Periplasmic extracts of VHHs are injected at a 10-fold dilution in running buffer for 2 min at 45 μl/min and allowed to dissociate for 10 or 15 min. Between different samples, the surfaces are regenerated with regeneration buffer. Data are double referenced by subtraction of the curves on the reference channel and of a blank running buffer injection. […] is evaluated by fitting a two phase decay model in the Biacore T100 Evaluation software v2.0.1.

In test [6] the target is VEGF. As to the kind of experiment: cell-based or functional assay. The source holds these as a separate data set.
The target of test [7] is VEGF. As to the kind of experiment: cell-based or functional assay. This is another data set of the same source.
Test [8] deals with T2, recombinant mouse VEGF164 (mouse, UniProt Q00731-2 27-190, biotinylated in the AlphaScreen).
T2 construct: also called mVEGF164; rmVEGF164
T2 sequence (looked up): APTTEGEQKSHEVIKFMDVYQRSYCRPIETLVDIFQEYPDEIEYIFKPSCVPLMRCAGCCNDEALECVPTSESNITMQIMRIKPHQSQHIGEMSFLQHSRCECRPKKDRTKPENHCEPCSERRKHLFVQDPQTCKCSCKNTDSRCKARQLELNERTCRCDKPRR
As to the kind of experiment: binding ELISA, coated rmVEGF164. The procedure:
Cross-reactivity to mouse VEGF164 is determined using a binding ELISA. […] Wells are blocked with a casein solution (1% in PBS). […] A mouse VEGF164 reactive mAb is included as positive control.
(ELISA stands for enzyme-linked immunosorbent assay.)

This note sets out measurements from patent publication US20200308267A1 (Boehringer Ingelheim, published 2020).

Where two headings read alike, the source gives them in different places.

Sequence of VEGF (P15692 whole entry): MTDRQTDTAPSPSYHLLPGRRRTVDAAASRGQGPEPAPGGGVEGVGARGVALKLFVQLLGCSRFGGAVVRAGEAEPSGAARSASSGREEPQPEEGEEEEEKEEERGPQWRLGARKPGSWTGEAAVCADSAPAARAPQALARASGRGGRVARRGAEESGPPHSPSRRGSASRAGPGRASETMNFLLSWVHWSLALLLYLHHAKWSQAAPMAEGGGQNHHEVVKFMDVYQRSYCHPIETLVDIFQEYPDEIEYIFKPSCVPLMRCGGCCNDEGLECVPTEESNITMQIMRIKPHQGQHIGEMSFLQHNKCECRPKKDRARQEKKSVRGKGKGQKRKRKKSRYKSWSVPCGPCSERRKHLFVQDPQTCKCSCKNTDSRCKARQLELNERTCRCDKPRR

B1: VEGFBII23B04 (VHH, not shown: small tags and cut ends)
VHH: EVQLVESGGGLVQTGDSLRLSCEVSGRTFSSYSMGWFRQAQGKEREFVVAISKGGYKYDSVSLEGRFTISKDNAKNTVYLQINSLKPEDTAVYYCASSRAYGSSRLRLADTYEYWGQGTQVTVSS
notes: also purified from E. coli TG1; also called VEGFBII23B4; VEGFBII23B04 (wt)
Turning to B1, in the test with VEGF [1], the “HUVEC proliferation, % inhibition” value was determined as 91% and the “HUVEC proliferation, IC50” value worked out at 0.36 nM. For the same molecule, in test [2], the ka1 turned out to be 210000 M⁻¹ s⁻¹ and the kd1 came out at 0.0086 s⁻¹. In the test with VEGF [3], the “HUVEC proliferation, % inhibition” value is 92% and the “HUVEC proliferation, IC50” value came to 0.68 nM. Moreover, the “HUVEC Erk phosphorylation, IC50” value with VEGF [4] stood at 0.37 nM. In test [5], the “kd(fast)” value was 0.0088 and the “kd(slow)” value came out at 4e-05.

B2: VEGFBII038 (VHH)
VHH: DVQLVESGGGLVQPGGSLRLSCAASGRTFSSYSMGWFRQAPGKEREFVVAISKGGYKYDAVSLEGRFTISRDNAKNTVYLQINSLRPEDTAVYYCASSRAYGSSRLRLADTYEYWGQGTLVTVSS
In the case of B2, in the test with VEGF [3], the “HUVEC proliferation, % inhibition” value was 92% and the “HUVEC proliferation, IC50” value worked out at 0.6 nM.

B3: VEGFBII025 (VHH, not shown: small tags and cut ends)
chain: EVQLVESGGGLVQAGGSLRLSCAASGRTFSNYAMGWFRQAPGKERVLVADISSSGINTYVADAVKGRFTISRDNAKNTVYLQMNSLKPEDTAVYYCAASAWWYSQMARDNYRYWGQGTQVTVSSGGGGSGGGGSGGGGSGGGGSGGGGSGGGGSGGGGSGGGGSEVQLVESGGGLVQTGDSLRLSCEVSGRTFSSYSMGWFRQAQGKEREFVVAISKGGYKYDSVSLEGRFTISKDNAKNTVYLQINSLKPEDTAVYYCASSRAYGSSRLRLADTYEYWGQGTQVTVSS
As for B3, in the test with VEGF [6], the “HUVEC Erk phosphorylation, % inhibition” value was determined as 99% and the “HUVEC Erk phosphorylation, IC50” value amounted to 0.23 nM. Further, in the test with VEGF [7], the “HUVEC proliferation, % inhibition” value amounted to 104% and the “HUVEC proliferation, IC50” value was 0.41 nM.

B4: VEGFBII23A06 (VHH, not shown: small tags and cut ends)
VHH: EVQLVESGGGLVQPGDSLKLSCAFSGRTFSSYSMGWFRQAQGKEREFVVAISSGGFIYDAVSLEGRFTISRDNTKNTVYLQTPSLKPEDTAVYYCAASRAYGSSRLRLADTYDYWGQGTQVTVSS
notes: also purified from E. coli TG1; also called VEGFBII23A6; 23A6
With B4, in the test with VEGF [1], the “HUVEC proliferation, % inhibition” value worked out at 73% and the “HUVEC proliferation, IC50” value turned out to be 4.29 nM. In addition, in test [2], the ka1 amounted to 420000 M⁻¹ s⁻¹ and the kd1 was found to be 0.057 s⁻¹. Further, in test [5], the “kd(fast)” value was determined as 0.017 and the “kd(slow)” value is 3.7e-05.

B5: VEGFBII24C04 (VHH, not shown: small tags and cut ends)
VHH: EVQLVESGGGLVQPGDSLKLSCVASGRTSSSYSMGWFRQAQGKEREFVVAISSGGYIYDSVSLQGRFTISRDNTKNTVYLQTPSLKPEDTAVYYCAASRAYGSSRLRLADTYDYWGQGTQVTVSS
notes: also purified from E. coli TG1; also called VEGFBII24C4
As for B5, in the test with VEGF [1], the “HUVEC proliferation, % inhibition” value came out at 79% and the “HUVEC proliferation, IC50” value stood at 3.8 nM. Further, in test [8], the binding result is listed as “no binding (tested: 500 nM)”. Further, in test [2], the ka1 is 320000 M⁻¹ s⁻¹ and the kd1 came to 0.026 s⁻¹. Besides, in test [5], the “kd(fast)” value was 0.013 and the “kd(slow)” value is 3.4e-05.

B6: VEGFBII037 (VHH)
VHH: DVQLVESGGGLVQPGGSLRLSCAASGRTFSSYSMGWFRQAPGKEREFVVAISKGGYKYDAVSLEGRFTISRDNAKNTVYLQMNSLRPEDTAVYYCASSRAYGSSRLRLADTYEYWGQGTLVTVSS
As to B6, in the test with VEGF [3], the “HUVEC proliferation, % inhibition” value was 78% and the “HUVEC proliferation, IC50” value worked out at 1.54 nM.

B7: VEGFBII024 (VHH, not shown: small tags and cut ends)
chain: EVQLVESGGGLVQTGDSLRLSCEVSGRTFSSYSMGWFRQAQGKEREFVVAISKGGYKYDSVSLEGRFTISKDNAKNTVYLQINSLKPEDTAVYYCASSRAYGSSRLRLADTYEYWGQGTQVTVSSGGGGSGGGGSGGGGSGGGGSGGGGSGGGGSGGGGSGGGGSEVQLVESGGGLVQAGGSLRLSCTASGSAFKSYRMGWFRRTPGKEDEFVASISWTYGSTFYADSVKGRFTMSRDKAKNAGYLQMNSLKPEDTALYYCAAGAQSDRYNIRSYDYWGQGTQVTVSS
As to B7, in the test with VEGF [6], the “HUVEC Erk phosphorylation, % inhibition” value was 94% and the “HUVEC Erk phosphorylation, IC50” value is 0.23 nM. In addition, in the test with VEGF [7], the “HUVEC proliferation, % inhibition” value came out at 96% and the “HUVEC proliferation, IC50” value amounted to 0.38 nM.
